In PMC2734569, “Functional mapping of the fission yeast DNA polymerase δ B-subunit Cdc1 by site-directed and random pentapeptide insertion mutagenesis” (BMC Molecular Biology, 2009):

Key:
Experiment in all cases: two-hybrid; LexA-Cdc1 bait (pBTM116 or pBTM116BN) with Gal4 activation domain-Cdc27 prey (pGAD2F-Cdc27) in S. cerevisiae CTY10-5d; ONPG liquid culture beta-galactosidase assay, mean of triplicates, as percent of wild-type Cdc1
Settings in all cases: partners not purified
[1] = target: T1, Cdc1-E2 (Schizosaccharomyces pombe, UniProt P87324 1-26)
T1 construct: Cdc1, S. pombe, truncated after amino acid 26 by a 16 nt insertion; residues coded by the 16 nt insertion before the stop codon (printed as GlyValProLysTer); source: yeast two-hybrid fusion, in S. cerevisiae CTY10-5d
T1 chain: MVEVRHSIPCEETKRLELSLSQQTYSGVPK

[2] = target: T2, Cdc1-A6 (Schizosaccharomyces pombe, UniProt P87324 1-462, Pro329Ala)
T2 construct: Cdc1, S. pombe, point mutant; source: yeast two-hybrid fusion, in S. cerevisiae CTY10-5d
T2 sequence (looked up): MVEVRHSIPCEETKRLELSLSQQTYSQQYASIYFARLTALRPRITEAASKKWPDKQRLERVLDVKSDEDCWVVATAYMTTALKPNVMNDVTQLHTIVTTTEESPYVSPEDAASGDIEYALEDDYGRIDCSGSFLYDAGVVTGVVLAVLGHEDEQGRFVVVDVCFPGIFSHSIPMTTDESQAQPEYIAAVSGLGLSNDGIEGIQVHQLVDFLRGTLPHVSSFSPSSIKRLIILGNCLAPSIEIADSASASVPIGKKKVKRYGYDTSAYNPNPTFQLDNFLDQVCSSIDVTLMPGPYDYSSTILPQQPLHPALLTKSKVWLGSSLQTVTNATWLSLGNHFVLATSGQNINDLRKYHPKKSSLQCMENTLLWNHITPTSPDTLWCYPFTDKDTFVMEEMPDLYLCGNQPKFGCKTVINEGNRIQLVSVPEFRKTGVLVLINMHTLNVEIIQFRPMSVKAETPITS

[3] = target: T3, Cdc1-A1 (Schizosaccharomyces pombe, UniProt P87324 1-462, Pro292Ala)
T3 construct: Cdc1, S. pombe, point mutant; source: yeast two-hybrid fusion, in S. cerevisiae CTY10-5d
T3 sequence (looked up): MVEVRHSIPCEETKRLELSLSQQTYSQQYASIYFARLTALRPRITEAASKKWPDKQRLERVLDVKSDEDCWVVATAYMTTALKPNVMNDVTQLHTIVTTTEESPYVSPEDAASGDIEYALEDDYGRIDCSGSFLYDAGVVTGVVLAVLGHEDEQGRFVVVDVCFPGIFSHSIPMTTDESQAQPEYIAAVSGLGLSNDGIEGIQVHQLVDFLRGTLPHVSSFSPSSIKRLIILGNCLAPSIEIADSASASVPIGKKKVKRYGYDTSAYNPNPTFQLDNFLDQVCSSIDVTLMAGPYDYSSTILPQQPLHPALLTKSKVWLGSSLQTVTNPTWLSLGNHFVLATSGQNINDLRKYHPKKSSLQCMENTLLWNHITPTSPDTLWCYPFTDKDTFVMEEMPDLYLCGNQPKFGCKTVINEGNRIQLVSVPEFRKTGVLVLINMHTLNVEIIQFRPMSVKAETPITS

[4] = target: T4, Cdc1-J16 (Schizosaccharomyces pombe, UniProt P87324 1-462, Val-GlyGlyThrProVal-Asp)
T4 construct: Cdc1, S. pombe, with a pentapeptide inserted after residue 160; source: yeast two-hybrid fusion, in S. cerevisiae CTY10-5d
T4 sequence (looked up): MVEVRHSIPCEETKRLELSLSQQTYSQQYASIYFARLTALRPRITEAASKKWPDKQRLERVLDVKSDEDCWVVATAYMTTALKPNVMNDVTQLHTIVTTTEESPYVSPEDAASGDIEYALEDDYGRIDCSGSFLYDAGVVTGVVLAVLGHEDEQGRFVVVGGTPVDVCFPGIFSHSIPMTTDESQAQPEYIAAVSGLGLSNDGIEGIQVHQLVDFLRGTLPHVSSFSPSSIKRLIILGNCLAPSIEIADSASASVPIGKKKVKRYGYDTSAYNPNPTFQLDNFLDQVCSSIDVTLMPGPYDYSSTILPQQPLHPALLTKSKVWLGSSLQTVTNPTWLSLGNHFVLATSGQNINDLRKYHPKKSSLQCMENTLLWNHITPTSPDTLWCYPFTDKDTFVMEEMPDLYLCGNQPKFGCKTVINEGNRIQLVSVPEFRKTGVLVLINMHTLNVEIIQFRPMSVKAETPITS

[5] = target: T5, Cdc1-J15 (Schizosaccharomyces pombe, UniProt P87324 1-462, Gln-GlyValProLeuGln-Val)
T5 construct: Cdc1, S. pombe, with a pentapeptide inserted after residue 203; source: yeast two-hybrid fusion, in S. cerevisiae CTY10-5d
T5 sequence (looked up): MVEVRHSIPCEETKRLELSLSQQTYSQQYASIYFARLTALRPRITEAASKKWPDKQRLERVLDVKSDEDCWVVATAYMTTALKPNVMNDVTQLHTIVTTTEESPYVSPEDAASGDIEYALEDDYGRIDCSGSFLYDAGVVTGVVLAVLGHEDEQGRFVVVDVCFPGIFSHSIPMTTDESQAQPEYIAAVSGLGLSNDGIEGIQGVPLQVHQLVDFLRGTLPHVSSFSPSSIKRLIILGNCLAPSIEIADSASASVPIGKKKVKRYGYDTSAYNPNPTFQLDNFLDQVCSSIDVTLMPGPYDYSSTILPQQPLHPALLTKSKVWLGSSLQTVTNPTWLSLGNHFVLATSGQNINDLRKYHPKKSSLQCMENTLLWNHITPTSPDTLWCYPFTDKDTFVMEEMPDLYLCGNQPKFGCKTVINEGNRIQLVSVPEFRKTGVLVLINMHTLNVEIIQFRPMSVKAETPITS

B1: Cdc27 (fission yeast DNA polymerase delta C-subunit) (natural protein, Schizosaccharomyces pombe, UniProt P30261 1-372, looked up)
chain: MEEWRNFLDIKVINESSLVTVDNLSLQLDISSEKAQEYLNMFYQGNDFLYPIYLIHGQPIDDEINLEIDEESQPISNFPVLQYILCDKSSLQEKQSRLKSGYKTVIFALSSAPLSDFDELLPAVYEIREKDVLYKKEDADKYGFIFNENSVPRVLKKAPSTHSPQLSVPSKTSTIDKTDTRSTEKTKGKDIFSNARNQKGNSSRKNKKAPLENHKEKEPLLPKEEKLSEQAKRERDDLKNIMQLEDESVSTTSVHDSEDDNLDSNNFQLEIGTEAKSAAPDEPQEIIKSVSGGKRRGKRKVKKYATTKDEEGFLVTKEEEVWESFSEDENISTGTSNVVRNKPTTVNIATKKKNTAQSKPQQKSIMSFFGKK
notes: DNA polymerase delta C-subunit Cdc27, S. pombe; prey plasmid pGAD2F-Cdc27; also called pGAD2F-Cdc27; source: yeast two-hybrid fusion, in S. cerevisiae CTY10-5d
two-hybrid beta-galactosidase activity, % of wild-type Cdc1 [1]: < 1%
two-hybrid beta-galactosidase activity, % of wild-type Cdc1 [2]: 6%
two-hybrid beta-galactosidase activity, % of wild-type Cdc1 [3]: 44%
two-hybrid beta-galactosidase activity, % of wild-type Cdc1 [4]: < 1%
two-hybrid beta-galactosidase activity, % of wild-type Cdc1 [5]: 78%
